Measured values as given in publication doi:10.1101/382655.
Substitutions are numbered along the chain they refer to. Like-named read-outs stand apart in the source and are kept apart here.

B1: H' (design I) (dsDNA)
DNA 1: TGGCCAAAAAAGCATTGCTTATCAATTTGTTGCACC
DNA 2: TGGTGCAACAAATTGATAAGCAATGCTTTTTTGGCC
B2: H'44A (design I) (dsDNA)
DNA 1: B1 DNA 1 with T31A
DNA 2: B1 DNA 2 with A7T
B3: H1 (design II) (dsDNA)
DNA 1: GGCCATGCAGTCACTATGAATCAACTACTTAGACC
DNA 2: GGTCTAAGTAGTTGATTCATAGTGACTGCATGGCC
modifications: 3' phosphate link on bottom strand (to dye)
B4: H' (design II) (dsDNA)
DNA 1: GGCCAAAAAAGCATTGCTTATCAATTTGTTGCACC
DNA 2: GGTGCAACAAATTGATAAGCAATGCTTTTTTGGCC
modifications: 3' phosphate link on bottom strand (to dye)
B5: H1_CTloop (design I) (dsDNA)
DNA 1: TGGCCATGCAGTCACTATGAATCAACTACTTAGACC
DNA 2: TGGTCTAAGTAGTTGATTCATTCTGACTGCATGGCC
B6: H1 (design I) (dsDNA)
DNA 1: B5 DNA 1
DNA 2: B5 DNA 2 with T22A, C23G

Tests used:
[1] = target: T1, Integration host factor (IHF) (UniProt P0A6X7;P0A6Y1 2-99;1-94); assay: equilibrium fluorescence titration
T1 sequence (P0A6X7 2-99, chain 1 of 2): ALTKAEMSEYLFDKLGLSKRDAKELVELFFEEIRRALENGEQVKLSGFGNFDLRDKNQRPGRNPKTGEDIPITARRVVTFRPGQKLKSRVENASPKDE
T1 sequence (P0A6Y1 whole entry, chain 2 of 2): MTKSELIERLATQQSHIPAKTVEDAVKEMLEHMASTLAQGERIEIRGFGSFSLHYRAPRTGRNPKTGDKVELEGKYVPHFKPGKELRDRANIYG

[2] = target: T1, Integration host factor (IHF); assay: equilibrium fluorescence titration, extrapolated
[3] = target: T1, Integration host factor (IHF); assay: fluorescence lifetime FRET
[4] = target: T1, Integration host factor (IHF); assay: fluorescence lifetime FRET; remark: listed apart in the source

Binder	Kd [1] [nM]	other results
B1	1900 ± 100	Kd [2]: 0.023 nM
B2		binding result [3]: binds
B3	1990 ± 50	
B4	1500 ± 200	
B5	16 ± 3	
B6		binding result [4]: binds
